Source: patent US20220332804A1 (CSL INNOVATION, published 2022)

What was measured:
Assay in all cases: SPR; KD relative to WT C2;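 note: biacore SPR at 37 °C, anti-C2 mAbs captured on an anti-human IgG chip, alanine or serine C2 surface mutants tested, KD from 1:1 fit compared with wild-type C2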
human C2 L279A = biological target: T1, human C2 L279A (human, UniProt P06681 21-752)
T1 sequence: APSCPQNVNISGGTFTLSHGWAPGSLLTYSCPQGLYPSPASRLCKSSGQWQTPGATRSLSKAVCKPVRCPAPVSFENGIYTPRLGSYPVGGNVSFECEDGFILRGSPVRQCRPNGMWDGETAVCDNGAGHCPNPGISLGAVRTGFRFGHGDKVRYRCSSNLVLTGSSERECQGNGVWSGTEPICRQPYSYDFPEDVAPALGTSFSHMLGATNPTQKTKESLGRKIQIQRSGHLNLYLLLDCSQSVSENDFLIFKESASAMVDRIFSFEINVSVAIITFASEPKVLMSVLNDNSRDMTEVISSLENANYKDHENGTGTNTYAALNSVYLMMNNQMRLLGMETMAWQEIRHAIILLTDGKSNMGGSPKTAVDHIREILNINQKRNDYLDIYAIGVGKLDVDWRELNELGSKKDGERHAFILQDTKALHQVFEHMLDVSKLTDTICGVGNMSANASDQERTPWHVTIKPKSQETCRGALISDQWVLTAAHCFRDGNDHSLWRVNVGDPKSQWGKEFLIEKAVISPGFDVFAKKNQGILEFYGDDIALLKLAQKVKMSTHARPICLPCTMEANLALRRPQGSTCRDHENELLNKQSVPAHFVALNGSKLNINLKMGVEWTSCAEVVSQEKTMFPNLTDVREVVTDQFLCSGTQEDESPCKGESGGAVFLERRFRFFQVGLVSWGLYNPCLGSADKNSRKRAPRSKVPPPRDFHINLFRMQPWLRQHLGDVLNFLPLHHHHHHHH

human C2 S469A = biological target: T2, human C2 S469A (human, UniProt P06681 21-752)
T2 sequence: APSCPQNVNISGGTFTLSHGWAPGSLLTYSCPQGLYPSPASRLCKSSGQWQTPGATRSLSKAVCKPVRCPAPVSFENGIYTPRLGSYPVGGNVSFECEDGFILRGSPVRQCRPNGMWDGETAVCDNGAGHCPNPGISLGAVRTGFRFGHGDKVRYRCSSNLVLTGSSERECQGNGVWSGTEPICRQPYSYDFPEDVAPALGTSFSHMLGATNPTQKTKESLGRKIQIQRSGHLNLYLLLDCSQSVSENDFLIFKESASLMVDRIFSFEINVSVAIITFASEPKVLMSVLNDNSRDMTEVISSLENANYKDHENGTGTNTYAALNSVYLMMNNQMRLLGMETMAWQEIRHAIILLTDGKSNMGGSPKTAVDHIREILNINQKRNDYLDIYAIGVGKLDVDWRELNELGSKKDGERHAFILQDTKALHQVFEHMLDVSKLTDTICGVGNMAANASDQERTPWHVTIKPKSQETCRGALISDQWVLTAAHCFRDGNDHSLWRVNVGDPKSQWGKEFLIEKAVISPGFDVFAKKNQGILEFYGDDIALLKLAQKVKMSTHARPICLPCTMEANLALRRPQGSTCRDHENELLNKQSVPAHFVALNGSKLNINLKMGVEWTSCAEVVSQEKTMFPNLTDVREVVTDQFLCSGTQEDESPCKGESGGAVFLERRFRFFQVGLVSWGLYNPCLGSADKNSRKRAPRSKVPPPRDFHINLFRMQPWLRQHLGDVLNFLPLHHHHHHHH

human C2 D419A = biological target: T3, human C2 D419A (human, UniProt P06681 21-752)
T3 sequence: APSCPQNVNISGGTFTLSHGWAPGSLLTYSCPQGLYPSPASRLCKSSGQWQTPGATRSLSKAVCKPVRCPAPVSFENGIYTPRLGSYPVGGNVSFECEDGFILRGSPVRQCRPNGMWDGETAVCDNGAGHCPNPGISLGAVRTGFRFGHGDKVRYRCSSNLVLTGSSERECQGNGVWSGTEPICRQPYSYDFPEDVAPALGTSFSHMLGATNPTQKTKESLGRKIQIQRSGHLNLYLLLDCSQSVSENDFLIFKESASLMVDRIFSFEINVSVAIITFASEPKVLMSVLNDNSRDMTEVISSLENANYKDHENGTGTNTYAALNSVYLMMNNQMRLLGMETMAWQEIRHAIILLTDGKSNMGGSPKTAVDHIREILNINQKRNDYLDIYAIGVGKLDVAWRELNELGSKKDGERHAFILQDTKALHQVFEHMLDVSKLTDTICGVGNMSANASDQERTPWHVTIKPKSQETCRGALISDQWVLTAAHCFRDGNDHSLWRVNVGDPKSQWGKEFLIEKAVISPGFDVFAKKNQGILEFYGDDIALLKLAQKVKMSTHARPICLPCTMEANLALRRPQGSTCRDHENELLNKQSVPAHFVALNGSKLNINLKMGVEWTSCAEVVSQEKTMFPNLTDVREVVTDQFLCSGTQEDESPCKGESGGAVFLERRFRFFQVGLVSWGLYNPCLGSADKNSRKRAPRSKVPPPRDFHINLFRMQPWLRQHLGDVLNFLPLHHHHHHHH

human C2 T442A = biological target: T4, human C2 T442A (human, UniProt P06681 21-752)
T4 sequence: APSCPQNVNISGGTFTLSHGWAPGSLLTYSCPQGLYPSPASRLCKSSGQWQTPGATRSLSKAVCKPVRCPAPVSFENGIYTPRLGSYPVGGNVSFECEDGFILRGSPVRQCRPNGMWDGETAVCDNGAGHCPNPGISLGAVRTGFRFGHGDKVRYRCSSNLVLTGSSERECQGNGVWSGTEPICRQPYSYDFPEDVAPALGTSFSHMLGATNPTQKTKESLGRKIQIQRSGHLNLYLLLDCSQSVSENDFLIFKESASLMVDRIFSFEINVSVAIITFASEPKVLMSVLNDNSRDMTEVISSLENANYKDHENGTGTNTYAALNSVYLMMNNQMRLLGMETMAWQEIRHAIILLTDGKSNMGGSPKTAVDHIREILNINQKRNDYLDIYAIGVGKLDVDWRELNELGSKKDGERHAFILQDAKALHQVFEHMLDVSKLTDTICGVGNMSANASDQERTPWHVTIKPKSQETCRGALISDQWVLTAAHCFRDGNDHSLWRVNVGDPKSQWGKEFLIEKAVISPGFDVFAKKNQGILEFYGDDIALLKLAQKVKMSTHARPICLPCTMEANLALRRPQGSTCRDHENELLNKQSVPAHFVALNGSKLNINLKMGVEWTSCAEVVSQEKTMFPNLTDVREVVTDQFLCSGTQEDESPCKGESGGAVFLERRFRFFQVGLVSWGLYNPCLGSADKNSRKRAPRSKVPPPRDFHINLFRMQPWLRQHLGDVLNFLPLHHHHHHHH

Fold diff (human C2 L279A): 8 fold
Fold diff (human C2 S469A): 3 fold
Fold diff (human C2 D419A): 2 fold
Fold diff (human C2 T442A): 2 fold
B1: RF16-214 (antibody, V domains shown)
VH: EVQLLESGGGLVQPGGSLRLSCAASGFTFSWYQMMWVRQAPGKGLEWVSRIYPSGGGTAYADSVKGRFTISRDNSKNTLYLQMNSLRAEDTAVYYCARDAGYGDNWGQGTLVTVSS
VL: QSALTQPPSVSVSPGQTASITCSGDKLGEKYASWYQQKAGQSPVMVIYQDRKRPSGIPERFSGSNSGNTATLTISGTQAMDEADYYCQAWDTRAVVFGGGTKLTVLG
